Assay results taken from the Human Domainome abundance scans (Beltran et al. 2025).
± gives the uncertainty stated by the source.

B1: COUP transcription factor 1, residues 83 to 159; numbered along this chain, P10589 (parent)
chain: HIECVVCGDKSSGKHYGQFTCEGCKSFFKRSVRRNLTYTCRANRNCPIDQHHRNQCQYCRLKKCLKVGMRREAVQRG

Variants of: B1
Experiment: abundance fitness (aPCA) (normalised: wild type 0, dead -1); higher = more abundant; growth selection in yeast, the domain comes from the species named
Details: Homo sapiens

Row | Variant | abundance fitness
1 | HIECVVCGDKSSGKHYGQFTCEGCKSFFKRSVRRNLTYTCRANRNCPICQHHRNQCQYCRLKKCLKVGMRREAVQRG [D49C] | -0.726 ± 0.13
2 | HIECVVCGDKSSGKHYGQFTCEGCKSFFKRSVRRNLTYTCRANRNCPIEQHHRNQCQYCRLKKCLKVGMRREAVQRG [D49E] | -0.064 ± 0.076
3 | HIECVVCGDKSSGKHYGQFTCEGCKSFFKRSVRRNLTYTCRANRNCPMDQHHRNQCQYCRLKKCLKVGMRREAVQRG [I48M] | -0.13 ± 0.063
4 | HIECVVCGDKSSGKHYGQFTCEGCKSFFKRSVRRNLTYTCRANRNCPCDQHHRNQCQYCRLKKCLKVGMRREAVQRG [I48C] | -0.25 ± 0.071
5 | HIECVVCGDKSSGKHYGQFTCEGCKSFFKRSVRRNLTYTCRANRNCPQDQHHRNQCQYCRLKKCLKVGMRREAVQRG [I48Q] | -0.125 ± 0.065
6 | HIECVVCGDKSSGKHYGQFTCEGCKSFFKRSVRRNLTYTCRANRNCPPDQHHRNQCQYCRLKKCLKVGMRREAVQRG [I48P] | -0.788 ± 0.13
7 | HIECVVCGDKSSGKHYGQFTCEGCKSFFKRSVRRNLTYTCRANRNCPHDQHHRNQCQYCRLKKCLKVGMRREAVQRG [I48H] | -0.93 ± 0.22
8 | HIECVVCGDKSSGKHYGQFTCEGCKSFFKRSVRRNLTYTCRANRNCPFDQHHRNQCQYCRLKKCLKVGMRREAVQRG [I48F] | -0.11 ± 0.087
9 | HIECVVCGDKSSGKHYGQFTCEGCKSFFKRSVRRNLTYTCRANRNCPYDQHHRNQCQYCRLKKCLKVGMRREAVQRG [I48Y] | -0.518 ± 0.12
10 | HIECVVCGDKSSGKHYGQFTCEGCKSFFKRSVRRNLTYTCRANRNCPGDQHHRNQCQYCRLKKCLKVGMRREAVQRG [I48G] | -0.466 ± 0.071
11 | HIECVVCGDKSSGKHYGQFTCEGCKSFFKRSVRRNLTYTCRANRNCPTDQHHRNQCQYCRLKKCLKVGMRREAVQRG [I48T] | -0.094 ± 0.056
12 | HIECVVCGDKSSGKHYGQFTCEGCKSFFKRSVRRNLTYTCRANRNCPEDQHHRNQCQYCRLKKCLKVGMRREAVQRG [I48E] | -0.23 ± 0.092
13 | HIECVVCGDKSSGKHYGQFTCEGCKSFFKRSVRRNLTYTCRANRNCPWDQHHRNQCQYCRLKKCLKVGMRREAVQRG [I48W] | -0.283 ± 0.063
14 | HIECVVCGDKSSGKHYGQFTCEGCKSFFKRSVRRNLTYTCRANRNCPDDQHHRNQCQYCRLKKCLKVGMRREAVQRG [I48D] | -0.302 ± 0.11
15 | HIECVVCGDKSSGKHYGQFTCEGCKSFFKRSVRRNLTYTCRANRNCPADQHHRNQCQYCRLKKCLKVGMRREAVQRG [I48A] | -0.366 ± 0.071
16 | HIECVVCGDKSSGKHYGQFTCEGCKSFFKRSVRRNLTYTCRANRNCPNDQHHRNQCQYCRLKKCLKVGMRREAVQRG [I48N] | -0.151 ± 0.088
17 | HIECVVCGDKSSGKHYGQFTCEGCKSFFKRSVRRNLTYTCRANRNCPLDQHHRNQCQYCRLKKCLKVGMRREAVQRG [I48L] | -0.147 ± 0.046
18 | HIECVVCGDKSSGKHYGQFTCEGCKSFFKRSVRRNLTYTCRANRNCPRDQHHRNQCQYCRLKKCLKVGMRREAVQRG [I48R] | -0.461 ± 0.065

Row | Variant | abundance fitness
19 | HIECVVCGDKSSGKHYGQFTCEGCKSFFKRSVRRNLTYTCRANRNCPSDQHHRNQCQYCRLKKCLKVGMRREAVQRG [I48S] | -0.286 ± 0.052
20 | HIECVVCGDKSSGKHYGQFTCEGCKSFFKRSVRRNLTYTCRANRNCPKDQHHRNQCQYCRLKKCLKVGMRREAVQRG [I48K] | -0.661 ± 0.14
21 | HIECVVCGDKSSGKHYGQFTCEGCKSFFKRSVRRNLTYTCRANRNCHIDQHHRNQCQYCRLKKCLKVGMRREAVQRG [P47H] | -0.296 ± 0.12
22 | HIECVVCGDKSSGKHYGQFTCEGCKSFFKRSVRRNLTYTCRANRNCWIDQHHRNQCQYCRLKKCLKVGMRREAVQRG [P47W] | -0.217 ± 0.062
23 | HIECVVCGDKSSGKHYGQFTCEGCKSFFKRSVRRNLTYTCRANRNCCIDQHHRNQCQYCRLKKCLKVGMRREAVQRG [P47C] | -0.206 ± 0.085
24 | HIECVVCGDKSSGKHYGQFTCEGCKSFFKRSVRRNLTYTCRANRNCLIDQHHRNQCQYCRLKKCLKVGMRREAVQRG [P47L] | -0.141 ± 0.056
25 | HIECVVCGDKSSGKHYGQFTCEGCKSFFKRSVRRNLTYTCRANRNCAIDQHHRNQCQYCRLKKCLKVGMRREAVQRG [P47A] | -0.008 ± 0.045
26 | HIECVVCGDKSSGKHYGQFTCEGCKSFFKRSVRRNLTYTCRANRNCRIDQHHRNQCQYCRLKKCLKVGMRREAVQRG [P47R] | -0.188 ± 0.044
27 | HIECVVCGDKSSGKHYGQFTCEGCKSFFKRSVRRNLTYTCRANRNCNIDQHHRNQCQYCRLKKCLKVGMRREAVQRG [P47N] | -0.679 ± 0.22
28 | HIECVVCGDKSSGKHYGQFTCEGCKSFFKRSVRRNLTYTCRANRNCMIDQHHRNQCQYCRLKKCLKVGMRREAVQRG [P47M] | -0.267 ± 0.071
29 | HIECVVCGDKSSGKHYGQFTCEGCKSFFKRSVRRNLTYTCRANRNCIIDQHHRNQCQYCRLKKCLKVGMRREAVQRG [P47I] | -0.137 ± 0.12
30 | HIECVVCGDKSSGKHYGQFTCEGCKSFFKRSVRRNLTYTCRANRNCTIDQHHRNQCQYCRLKKCLKVGMRREAVQRG [P47T] | -0.14 ± 0.063
31 | HIECVVCGDKSSGKHYGQFTCEGCKSFFKRSVRRNLTYTCRANRNCDIDQHHRNQCQYCRLKKCLKVGMRREAVQRG [P47D] | -0.271 ± 0.12
32 | HIECVVCGDKSSGKHYGQFTCEGCKSFFKRSVRRNLTYTCRANRNCKIDQHHRNQCQYCRLKKCLKVGMRREAVQRG [P47K] | -0.035 ± 0.079
33 | HIECVVCGDKSSGKHYGQFTCEGCKSFFKRSVRRNLTYTCRANRNCFIDQHHRNQCQYCRLKKCLKVGMRREAVQRG [P47F] | -0.023 ± 0.1
34 | HIECVVCGDKSSGKHYGQFTCEGCKSFFKRSVRRNLTYTCRANRNCVIDQHHRNQCQYCRLKKCLKVGMRREAVQRG [P47V] | -0.003 ± 0.049
35 | HIECVVCGDKSSGKHYGQFTCEGCKSFFKRSVRRNLTYTCRANRNCSIDQHHRNQCQYCRLKKCLKVGMRREAVQRG [P47S] | -0.172 ± 0.063
36 | HIECVVCGDKSSGKHYGQFTCEGCKSFFKRSVRRNLTYTCRANRNCGIDQHHRNQCQYCRLKKCLKVGMRREAVQRG [P47G] | -0.153 ± 0.044
